Experimental data as given in US20190169308A1.

Target: human/mouse 5T4 chimera aa173-420 (human; mouse) (UniProt Q13641)
Assay: flow cytometry, cells with human/mouse 5T4 chimera

Sequence of human/mouse 5T4 chimera aa173-420 (human; mouse) (Q13641 other isoform, or with tags, fused parts or gaps mutant limits assumed, form in doubt): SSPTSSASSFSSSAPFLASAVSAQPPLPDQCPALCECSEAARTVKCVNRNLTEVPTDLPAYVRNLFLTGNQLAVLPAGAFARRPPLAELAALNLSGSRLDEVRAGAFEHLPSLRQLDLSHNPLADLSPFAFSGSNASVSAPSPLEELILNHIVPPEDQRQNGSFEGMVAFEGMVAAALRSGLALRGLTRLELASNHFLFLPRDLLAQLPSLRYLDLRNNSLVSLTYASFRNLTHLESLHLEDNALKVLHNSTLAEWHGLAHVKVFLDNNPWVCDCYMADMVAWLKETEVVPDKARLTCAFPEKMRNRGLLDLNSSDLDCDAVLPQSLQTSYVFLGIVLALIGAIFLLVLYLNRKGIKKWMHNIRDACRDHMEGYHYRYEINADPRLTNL

| normalized % positive cells | Binder |
| --- | --- |
| 0.3 | 1206/1207 (antibody, V domains shown) VH: EVQLLESGGGLVQPGGSLRLSCAASGFTFSGSSMSWVRQAPGKGLEWVSSIYYSGSGTYYADSVKGRFTISRDNSKNTLYLQMNSLRAEDTAVYYCARYGRNVHPYNLDYWGQGTLVTVSS VL: DIQMTQSPSSLSASVGDRVTITCRASQSISSYLNWYQQKPGKAPKLLIYAASSLQSGVPSRFSGSGSGTDFTLTISSLQPEDFATYYCQQGYYYLPTFGQGTKLEIK |
| -0.01 | 1212/1213 (antibody, V domains shown) VH: EVQLLESGGGLVQPGGSLRLSCAASGFTFSSYAMSWVRQAPGKGLEWVSYISSYGGYTSYADSVKGRFTISRDNSKNTLYLQMNSLRAEDTAVYYCARYHSGVLDYWGQGTLVTVSS VL: DIQMTQSPSSLSASVGDRVTITCRASQSISSYLNWYQQKPGKAPKLLIYAASSLQSGVPSRFSGSGSGTDFTLTISSLQPEDFATYYCQQYYYHYLLTFGQGTKLEIK |
